Experiment [1] concerns the target T1, hTIGIT-His protein (human, UniProt Q495A1 22-141).
T1 construct: Coated on the ELISA plate at 0.5 µg/mL; also called antigen hTIGIT-his protein; not shown: His tag
T1 sequence (looked up): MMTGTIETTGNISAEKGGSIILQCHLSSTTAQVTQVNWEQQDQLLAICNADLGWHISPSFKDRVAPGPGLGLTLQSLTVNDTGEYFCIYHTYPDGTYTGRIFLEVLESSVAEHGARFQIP
The experiment can be described thus: ELISA, hTIGIT-His coated at 0.5 µg/mL. The method, then: (§1) The hTIGIT-his protein was diluted to 0.5 μg/mL with CBS buffer, coated in an ELISA plate in 50 μL/well, and left at 4° C. overnight. The plate was washed with PBST buffer for three times, 200 μL/well, and patted dry. 1% of BSA (dissolved in PBS) was then added, 200 μL/well, and the plate was incubated at 37° C. for 2 hours. After incubation, the plate was washed with PBST for three times, 200 μL/well, and patted dry. […] 100 μL was sucked with a multi-channel pipette, transferred into the ELISA plate, and incubated at 37° C. for 1 hour. After incubation, the plate was washed with PBST for three times, 200 μL/well, and patted dry. An anti-mouse IgG antibody labeled by HRP was diluted with 1% of BSA (dissolved in PBST) (diluted at 1:5000), 100 μL/well. Incubation was performed at 37° C. for 1 hour. After incubation, the plate was washed with PBST for three times, 200 μL/well, and patted dry. 50 μL of TMB chromogen solution was added into each well for chromogenic reaction, and the reaction time was 5 minutes in the dark. After 5 minutes of incubation, hydrochloric acid stop solution was directly added to stop the reaction in 50 μL/well. Absorbances at 450 nm (OD450) were detected by the light absorption mode of a microplate reader.

Experiment [2] deals with T2, mouse-derived TIGIT protein (accession number: NP_001139797.1) (mouse, UniProt P86176 29-148, limits assumed).
T2 construct: also called mouse TIGIT
T2 sequence (looked up): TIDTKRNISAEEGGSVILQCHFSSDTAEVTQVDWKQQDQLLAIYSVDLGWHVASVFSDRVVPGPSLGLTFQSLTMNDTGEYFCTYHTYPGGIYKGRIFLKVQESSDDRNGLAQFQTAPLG
The experiment is described as follows: indirect ELISA, method as in Example 3. The method, then: as §1, with “The” for “The hTIGIT-his protein was diluted to 0.5 μg/mL with CBS buffer, coated in an ELISA plate in 50 μL/well, and left at 4° C. overnight. The”
A general note: An ELISA detects its analyte on a solid surface through an enzyme-linked reagent.

For experiment [3], the target named is T3, hTIGIT on the surface of 293F-hTIGIT-short #1B1 cells (human, UniProt Q495A1 22-162, limits assumed).
T3 construct: domain: extracellular domain and transmembrane domain; It is a truncated ('short') construct without the cytoplasmic part; also called 293F-hTIGIT-short cells; 293F-hTIGIT-short #1B1 cell line
T3 sequence (looked up): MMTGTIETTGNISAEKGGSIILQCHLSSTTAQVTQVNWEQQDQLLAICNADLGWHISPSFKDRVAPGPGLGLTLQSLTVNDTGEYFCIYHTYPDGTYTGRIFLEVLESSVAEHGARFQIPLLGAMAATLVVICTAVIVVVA
The experiment is described as follows: flow cytometry on 293F-hTIGIT-short #1B1 cells. The method, then:
(§2) The 293F-hTIGIT-short #1B1 cell line was digested, terminated, centrifuged, resuspended and counted, and the cell density was adjusted to 4×10⁶ cells/mL. According to 50 μL/tube, 20×10⁴ cells were added into 1.5 mL EP tubes. […] The blank group was added with 150 μL of PBS as a blank control. Gentle blowing and mixing were performed, and incubation was performed on ice for 1 hour. After incubation, 500 μL of PBS was added for centrifugal washing once, centrifugation was performed at 2000 rpm for 5 minutes, and the supernatants were discarded. A fluorescent secondary antibody was added (Alexa® 488 fluorescently labeled anti-mouse IgG antibody was diluted with PBS (diluted at 1:500) and added to the corresponding tubes in 200 μL/tube), gentle blowing and mixing were performed, and incubation was performed on ice in the dark for 30 minutes. After 30 minutes of incubation, signal detection was performed with a flow cytometer.
On the technique in general: In flow cytometry, cells or beads pass a laser one at a time.

Experiment [4] concerns the target T3, hTIGIT on the surface of …. The experiment can be described thus: flow cytometry competition on 293F-hTIGIT-short #1B1 cells; competitor PVR-hFc at 6 µg/mL. The method, then:
The 293F-hTIGIT-short #1B1 cell line was digested, terminated, centrifuged, resuspended and counted, and the cell density was adjusted to 4×10⁶ cells/mL. According to 50 μL/tube, 20×10⁴ cells were added into 1.5 mL EP tubes. […] 100 μL of PBS was added into the blank group. Gentle blowing and mixing were performed, and incubation was then performed on ice for 1 hour. After incubation, 500 μL of PBS was added for centrifugal washing once, centrifugation was performed at 2000 rpm for 5 minutes, and the supernatants were discarded. Alexa® 488 fluorescently labeled anti-mouse or anti-human IgG antibody was diluted with PBS (diluted at 1:500) and added to the corresponding tubes in 200 μL/tube, gentle blowing and mixing were performed, and incubation was performed on ice in the dark for 30 minutes. After 30 minutes of incubation, signal detection was performed with a flow cytometer.

The target in experiment [5] is T3, hTIGIT on the surface of …. The experiment is described as follows: flow cytometry competition on 293F-hTIGIT-short #1B1 cells; competitor 4.1D3 at 6 µg/mL, detected with anti-human IgG.
Experiment [6] concerns the target T1, hTIGIT-His protein. The experiment is described as follows: ELISA on hTIGIT-His, method as in Example 3. The method, then:
as §1

Experiment [7] addresses T3, hTIGIT on the surface of …. The experiment is described as follows: flow cytometry on cells expressing hTIGIT, method as in Example 3. The procedure: as §2
The method was the same as that in example 3.

The target of experiment [8] is T3, hTIGIT on the surface of …. The experiment can be described thus: flow cytometry competition on 293F-hTIGIT-short cells; competitor PVR (method as in Example 4).

These results are taken from patent US20250011421A1 (GUANGDONG ANNPO BIOTECHNOLOGY, published 2025).

B1: hTIGIT mouse-derived antibody m51C1 (antibody, V domains shown)
VH: QVQLQQSGAELVKPGASVKLSCKASGYTFTEYFIHWIKQKSGQGLEWIGWFYPGSGSIKYNERFKDKATLTADKSSSTVYMELSRLTSEDSAVYFCARHEMRYGNYVLDYWGQGTTLTVSS
VL: QAVVTQESALTTSPGETVTLTCRSSTGAVTTRNYANWVQEKPDHLFTGLIGGTNNRVPGVPARFSGSLIGDKAALTITGAQTEDEAIYFCGLWYSNHLVFGGGTKLTVLG
notes: Mouse monoclonal antibody from a hybridoma
For orientation: EC50 means the concentration that produces a half-maximal response. As usually defined, the IC50 is the point on the concentration scale where inhibition reaches its midpoint. Read a high IC50 as lower potency. In the case of B1, the EC50 was found to be 0.00396 µg/mL with hTIGIT-His protein [1] and 0.811 µg/mL in experiment [3]. For the same molecule, the binding result in experiment [2] was “no binding”. The IC50 in experiment [4] was determined as 1.35 µg/mL; in experiment [5], 4.08 µg/mL.

B2: hTIGIT humanized antibody h60H5 (antibody, human IgG1, V domains shown)
VH: QVQLVQSGAEVKKPGASVKVSCKTSGYTFTEYTMHWVRQAPGQRLEWIGGINPNNGGTSYNQKFQGRVTITVDTSASTAYMELSSLRSEDTAVYYCARSGNWDYAMDYWGQGTTVTVSS
VL: DIQMTQSPSSMSASVGDRVTITCKASQHVSTAVVWYQQKPGKAPKLLIYSASYRYTGVPDRFSGSGSGTDFTFTISSLQPEDIATYYCQQHYITPWTFGGGTKLEIKR
notes: also called 60H5-H2L1
On to B2, for which the EC50 in the experiment with hTIGIT-His protein [6] amounted to 0.006 µg/mL; in experiment [7], 1.57 µg/mL. Besides, in experiment [8], the IC50 is 2 µg/mL.

B3: hTIGIT humanized antibody h51C1 (antibody, human IgG1, V domains shown)
VH: QVQLVQSGAEVKKPGASVKVSCKASGYTFTEYFIHWVRQAPGQGLEWIGWFYPGSGSIKYNERFKDRVTLTADTSISTAYMELSRLRSDDTAVYYCARHEMRYGNYVLDYWGQGTTVTVSS
VL: QAVVTQEPSLTVSPGGTVTLTCRSSTGAVTTRNYANWVQQKPGQAPRGLIGGTNNRVPGVPARFSGSLLGGKAALTLSGAQPEDEAEYYCGLWYSNHLVFGGGTKLTVLG
notes: also called 51C1-H2L2
As for B3, the EC50 with hTIGIT-His protein [6] amounted to 0.007 µg/mL; in experiment [7] it was 2.98 µg/mL. The molecule also showed an IC50 in experiment [8] of 5.21 µg/mL.
